Data from the DeepSol protein solubility set.

Test: soluble on expression in E. coli; label from the status in PepcDB or PDB records

| Sequence | soluble on expression in E. coli |
| --- | --- |
| MLPAEREQFIITFLKTNKKATIHDLALEFNVHEATIRRDLNKLEQYNQIKRTHGGVVLNDSEVWDELNFDDRETSYYDEKVAIGLKAAEFVENGDTLFIDSGSTTIHFARALTQKSNLTIITNDIHIASILKSTANQIIVTGGILYQDNYLLNGMITNETLKLFNPSKLFLATPAIDLEKGITHFNDTLASTKIQMVKQAKAVYVLTDSSKFDKVALYNVCSSDTIDVLITDQTNKNIDWQAYDNHFKHLITVHAEAHPELEHHHHHH | soluble |
| MGSDKIHHHHHHMYRTAIEELHRWKAKRNKKPLIIRGARQVGKTWLMKEFGRVAFAKTVYISLDNNRRMKELFSADLDVERIVTGLELYSGQKIDPANTLLIFDEVQEVPTALTSLKYFNENAPQYQIISAGSLLGVALHQGTSFPVGKVEFLDLYPLSFTEFLNAMDKGRYVELLQKGDFDMIATFKQTYVDMLKYYYYVGGMPEVVQSFSETKDFGEVREIQQRILDAYEQDFSKHAPHDVVPRIRMLWNSIPAQLTKENKKFIYGLIKEGARAKEYEQSMLWLTDCGLVHKVHRVNAPSLPLKAYEDLKAFKLFLVDIGLLSCMVRLNQGTLLDGNELFKEFKGALTEQYVLQQLRTLKELEAYYWTNDRGSAEIDFVVDDGHKVIPIEVKAETNLKAKSLKMYQEKFRPELSIRASMADYRRENRLLNLPLYMVEMMGLLLKEAE | not soluble |
| MGSDKIHHHHHHMKIAILTTNQAADDSRLVATARKKGHSANLLDLRQMSIALRPSVADIYYQNELITHHFDAIIPRLNVSYTDYGINLLQQFICSNTYVSESPEALRLGRDKLKCLQHLLSKGLPFPTTAIAYTPDFFNAIMQQLQLPLVVKLIESTEGTGVFLARTHKEVDNLCKTFSLAGVSYLIQEFIAEAAGHDVRAFVVGNRVVAAMQRDSQDDDFRANVSLGAHSSAVTLSADEQELVLKATQSIGVHVAGVDFVRSNRGPLLLEINVSPDFTGEQGIEAITLRDVAADIIDYTVQHAEAFYQGRSKY | not soluble |
| MRVMAKIELLAKFTQIALPNSHPLLKKVLNYAKKHFSQCHMLSSSLLILNDTECFKKNYLLNWVYHALECVHEKDISAHSLEEVLQKSHLPIRIKIMAQNTLLEKIEVKVLTFGAEYALFITKHPIAKRFLRQKFSGCVFLETQDELHIRGDSERFWELIVTLNENRIVHNACLDFIYPNGFGKDSYTTMAERKLKECYKTLGFIKHEDFSEVKKRYLELAKTYHPDLCDLKEKKALYAKRFAIIQEAYRHIKKHALEHHHHHH | soluble |
| MGSDKIHHHHHHMTVAQLLIPQMYSSKSTGEAVGRHPLNFYESPSWFTTELLRHVRLSGVVGEPCVGMGAIASLLSVWPYTKQMWTNDIDPHKSANYQMDATLSESWAKFPDCDWICTNPPYSEFAAPIIKNAYCKAHVGVAAFLLTSFLEPCDDRADFLQQHPPSLVLIMPRFCFRKDKRGTRWATDNVTISCFVWDKRATGQQIIVRPKSAIAGFYKNPEQAISQERAEKIVRAIAKGEL | not soluble |
| MSDHDRDFDVVVVGGGHNGLVAAAYLARAGLRVRLLERLAQTGGAAVSIQAFDGVEVALSRYSYLVSLLPSRIVADLGAPVRLARRPFSSYTPAPATAGRSGLLIGPTGEPRAAHLAAIGAAPDAHGFAAFYRRCRLVTARLWPTLIEPLRTREQARRDIVEYGGHEAAAAWQAMVDEPIGHAIAGAVANDLLRGVIATDALIGTFARMHEPSLMQNICFLYHLVGGGTGVWHVPIGGMGSVTSALATAAARHGAEIVTGADVFALDPDGTVRYHSDGSDGAEHLVRGRFVLVGVTPAVLASLLGEPVAALAPGAQVKVNMVVRRLPRLRDDSVTPQQAFAGTFHVNETWSQLDAAYSQAASGRLPDPLPCEAYCHSLTDPSILSARLRDAGAQTLTVFGLHTPHSVFGDTEGLAERLTAAVLASLNSVLAEPIQDVLWTDAQSKPCIETTTTLDLQRTLGMTGGNIFHGALSWPFADNDDPLDTPARQWGVATDHERIMLCGSGARRGGAVSGIGGHNAAMAVLACLASRRKSPLEHHHHHH | not soluble |
| MGSDKIHHHHHHMTKHPLKSLAASVRAAIADPARTTFVGSDANPRFELFHAASSLCSQKVRTVLFEKQLPYRSNDMKILSSMGPDGVVPAEHYHAPYVGLRLIAGEEIGREFVSGYSGRTSVQTEGFDPCVVPLLVDYEASRVIADSRRICCYLDAVSRNPVQLVPEDADARALVMQQVDIVDRIPNGTLLYGFHPDADLRPEALRTVMESVYDYKVAALKAMIDANADNAELVSAYRAKIAKEQGGKSVRHDAALQRAARDHVAVLLADLDRLLGTSSPYLLGPHFSLGDVLWGVNLTRLAYLGLASMWKDRPNVIRYVNALLTRPSLRKEAVRATMDSMPPSRYFDVVSGTAEVASM | not soluble |
| LDTTRESIRIGDNLGNVINDPISSREIETQNERDNDLINRYYRPDELEKVKVVDFKPIILNLDELDNDELIMALEEKPAYSRTGVLLSRIDNIRMRIAESAGRLKKDVVRSEESERPAFESERSSSPTTISFN | not soluble |
| MGSDKIHHHHHHMKVFDVHKFDMKKEQDFLQVQFNLKNRINLSPTIHPDSINTGAGVDLAYWEQDGEPYGVCCIIVIDADTKEVIEKVHSMGRISVPYVSGFLAFRELPLIIEAAKKLETEPDVFLFDGNGYLHYNHMGVATHAAFFLGKPTIGIAKTYLKIKGCDFVTPEIEVGAYTDIIIDGEVYGRALRTRRDVKPIFLSCGNYIDLDSSYQITMSLINQESRLPIPVRLADLETHVLRTFYQKNHV | not soluble |
| MGSDKIHHHHHHMKASCYGSVGMAAMVAANLGEALKIFEQFIGSRCDAFKPELKQEQNDVYWSIHQPLKSFQLSSDATIFLLLGFIHIAKHLTGLSALGTVQLNMPEPIGFSKIKDKLGVSFLFDQKHNIWIFPKEYLMQPVLTADPMLAPLLKAQCKKDIDKLKLRSGWKAEISQVIKKLLINSQGEILKVKQVAQMMNMSERSLQRYLAIENTSFSALVDLTRKQYAQELLQNSLMSIESVALSLGYADTSHFTRAFKRWMGVTPKYYQTQLKLKNLEIRE | not soluble |
| MRWKRTLQLLDVHCEGEIGRVVTGGAPKIPGNTVAEQLHWMNTDPQGEALRRFLTLEPRGTPMGSVDLLLPPKHPDAHAAFVILQPDQAHASSGSNSICATTALLESGMVEMQEPETVIILETAAGLVKATATCRDGRCEKVKLTMVPSFVHELDVSIDTPEWGRVTMDISYGGIFYALVDVRQIGLTIEKANAAKLVAAGMTLKDLVNREMTVVHPEIPAISGVAYVMFRDVDADGSIRTCTTMWPGRADRSPCGTGNSANLATLYARGKVKVGDEYKSRSIIGSEFDVGLSAVTEVAGRPAVIPTIAGRGFTFGLHQVGLDPFDPLGDGFAMTDVWGPEAGNI | not soluble |
| GSPGISGGGGGILVGSKMAASIRERQTVALKRMLNFNVPHVKNSPGEPVWKVLIYDRFGQDIISPLLSVKELRDMGITLHLLLHSDRDPIRDVPAVYFVMPTEENIDRLCQDLRNQLYESYYLNFISAISRSKLEDIANAALAANAVTQVAKVFDQYLN | soluble |
| MSLNDIIEQLQELSETVPVPLELPTFEQLVEVEEQILIGLPNDLKEFLMYGSDVIYGTLEPVTAADPSSHTYLPEVACYAWSIGLPREQIAICQIGDSFYCIDEESQVMFWKKGRFSDKVWESFWHWAEDVWLNREGHHHHHH | soluble |
| MGSDKIHHHHHHAPPTFPEVKKIHAHRLSDELLISYPLDMAVSEDYIFILALADNAWLQVYDKTTGQLLGSFVTRGQGPGEATTANMCYYNAREKKISVYDESSMKLLTYRFDKDADNWGALIEERSFYDLGGTVRRVWELRNGRFLVDGQLGTKSDQQKRFQMLADAKVVADYNDFPIDTPKERSVWSSPAIAISPDCKKMAVGTLYGGILELFDLSQNIELRAIRKFYPPVVQYLSGTIQNTEETVWGFSALCVTDERIYSVFIGDKNPNLFNNLSVFDWDGRELIKYNTDCLVLRICASTQEPNKLYGIAFSETHEFYLVSFSLGS | not soluble |
| MIISDKFSLEAMCATTITDVKAGDEIILYGQKLTDENSCVTIKTDRVDIISSGNFIKYPNSTDIYDFDNKIDEWSFIIVEGVVNGNTIELNDKSTF | not soluble |
| MGSDKIHHHHHHMQATMTDKNTRELLLDAATTLFAEQGIAATTMAEIAASVGVNPAMIHYYFKTRDSLLDTIIEERIGRIIDMIWEPVTGEEDDPLIMVRDLVNRIVNTCETMLWLPSLWIREIVNEGGALREKMLNNIPIDKMNKFSAKIAEGQKQGVINSGIDSRLLIGSIIGLTMLPLATAKLRDQIPTMKGLSSEDIVCHVTALLFTGLTNPSNSDDIKKQRT | not soluble |
| MYEAKDYKSDQYVRWCPGCGDHAVVVTLQKAMAEIGIPPHQTAVMSGIGCSSRLPYYMNTYGFHTIHGRGAAIATGVKTANPELSVWLASGDGDSLAIGGNHFIHAVRRNIDINAVLFNNRIYGLTKGQYSPTSARGFVSKSSPYGTVEDPFIPAELVLGARGNFFARAIDVDMKTLQECFVASARHRGFAVTEVLVNCVIFNDGTHKDRSHKDIRADRTITLRHGEKMIFGANRDKGIVLEGLKLRAVTIGEDGYTLDDVLVHDKYEQDVTLHHLLAMMGYTDDSMPIALGVIRDVEAPCYDRAVEAQIEEIQQKNPIRKLHDLLIQGDVWEIK | not soluble |
| MGSSHHHHHHSSGLVPRGSHMASAASYPPIKNTKVGLALSSHPLASEIGQKVLEEGGNAIDAAVAIGFALAVVHPAAGNIGGGGFAVIHLANGENVALDFREKAPLKATKNMFLDKQGNVVPKLSEDGYLAAGVPGTVAGMEAMLKKYGTKKLSQLIDPAIKLAENGYAISQRQAETLKEARERFLKYSSSKKYFFKKGHLDYQEGDLFVQKDLAKTLNQIKTLGAKGFYQGQVAELIEKDMKKNGGIITKEDLASYNVKWRKPVVGSYRGYKIISMSPPSSGGTHLIQILNVMENADLSALGYGASKNIHIAAEAMRQAYADRSVYMGDADFVSVPVDKLINKAYAKKIFDTIQPDTVTPSSQIKPGMGQLHEGSN | soluble |
| FPDPSFIIDAEGRFLDCLTDPETMLTVDDTDTLVGQTLHEFFPHDTADSLLAAVRAALRTGSFQSVEYKLQVPSDKRWFEARVAPLESRAYDPDTVIFVARDI | not soluble |
| MKWRCLIYIETRGDILFMTKWFNVGKIVNTHGVRGEIRVISRTDFPEERYKVGNTLYISNEKGTDYLPVKVTSHRQHKTFDLLTFEGYNNVDEVEKFKGSLIKVPEEQLGELAEGEYYYHEIIGCSVVTEEGEALGTIKEILSPGANDVWVIKRPKGQDLLIPYIDDVVLQVNIENKLVTIHVMEGLLLEHHHHHH | soluble |
| MSDNLPWKTWTPDDLAPPPAEFVPMVESEETIIEEAEPSLEQQLAQLQMQAHEQGYQAGIAEGRQQGHEQGYQEGLAQGLEQGLAEAKAQQAPIHARMQQLVSEFQTTLDALDSVIASRLMQMALEAARQVIGQTPTVDNSALIKQIQQLLQQEPLFSGKPQLRVHPDDLQRVDDMLGATLSLHGWRLRGDPTLHPGGCKVSADEGDLDASVATRWQELCRLAAPGVV | not soluble |
| GPGGSPGGLQKRHARVTVKYDRRELQRRLDVEKWIDGRLEELYRGREADMPDEVNIDELLELESEEERSRKIQGLLKSCTNPTENFVQELLVKLRGLHK | soluble |
| MGSDKIHHHHHHMESAIDKHLVCPRTLSRRVADDYQPPFPMYVARAAEDLSQVVMGYFGVQYRGADQRSVALAALRRIVADFDAPDGPGNHDLTQHTDNQGYDNLIAVGYWRDPDAYARWIASPAVAEWWASDARLADGIGYFREIVAPRAEQFETLYAFTNDFPGVGSIMDGVSGEIEEHGYWGSMRDRFPISQTDWMHADGELRIVAGDPARGGRVVVLAHDNIALIRSGQDWRAAEDDERRLYLDEIEPTLRSGMDFLRDNGVDVGCYSNRYVRSIDLDGNLLDESYNIGHWRSLDRLERWAESHPTHLRIFVTFFRVVTGLSKLRLYHEVSVFDAKHQVYEYVNCHPTTGMMRDAVAR | not soluble |
